± gives the uncertainty stated by the source.

138 substances from the supplement of paper PMC12042874 can be followed below.

A short description of this series: amyloid nucleation score (Sup35N fusion, yeast selection) (log enrichment); library NNK2; higher = more nucleation; inactive = no reads after selection. In a few lines: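 Plasmid inserts were Illumina-sequenced at input and output from psi-negative yeast expressing Sup35N fused to peptides of 20 random codons. The yeast were induced with 100 μM copper sulfate for 24 hours and grown 7 days at 30°C on medium lacking adenine and uracil, and sequences with under 100 input reads were excluded. Nucleation score is the DiMSum log enrichment of output over input reads, centred on the mode score of non-aggregating sequences.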
As for GSVVHQEFFSPSKGFVSSQF, the amyloid nucleation score was -1.4 ± 0.55.

With VVYDHILVAKFRAFVLGPFL, the amyloid nucleation score was 4.07 ± 0.054.

With SNNFFNGMICSLFAGGC, the amyloid nucleation score came out at 7.55 ± 0.082. Under HGYSVFYAVYAEGEMNIINA stands -0.172 ± 1.1; under GGELP, -0.719 ± 0.79; under GYVFHYVSIQL, 7.957 ± 0.027. FFESCRLVNFELLVLSFFIG registered an amyloid nucleation score of -0.527 ± 0.28. Under NFSTGEGMYRNYNWDSQVRV stands “inactive”; under WLPNRRNVPYAVESVCS, 0.971 ± 0.33. Consider DCLLCFFGSHSILVRPILKV, for which the amyloid nucleation score result was “inactive”. In turn, IRFKVMGFMFFVSW displayed an amyloid nucleation score of 0.094 ± 0.65.

With VICLCVLFRGSCRIKILDIV, the amyloid nucleation score was -1.37 ± 1.1. Substance SLSCGLYGYMTNSCSYVHRT gave an amyloid nucleation score of 4.22 ± 0.053. Under SEAKGYLIWGFLWLFGYDFE stands -0.802 ± 0.63. EFFCAHLRADLVLKKNRVVF: the amyloid nucleation score was -1.05 ± 0.78.

HPLVLWSIELCMMFFNSLTD returned an amyloid nucleation score of -0.565 ± 0.48. Under FLACQYNCLVDSMG stands 3.26 ± 0.051. Under YSRTQENNAGLSYIACTGRR stands 0.168 ± 0.56; under PHHWTQWSVKMSGFRSLLRR, 1.19 ± 0.13; under YNESVHANVYVLLILKGLES, 6.621 ± 0.048. Under LDVYQ stands -0.711 ± 0.64; under NYPSVGSDIARLLRLVTRRI, -0.313 ± 0.76; under IGSLNMLLLGRLVVWMRHIA, 0.312 ± 0.54. On to YVQRNNARVTLGGTHSFRSV, for which the amyloid nucleation score was 3.83 ± 0.068.

For the substance MDVMVDW, the amyloid nucleation score is -0.343 ± 0.63. Under HSLLSLLVVFYLQDRSRVIC stands 0.848 ± 0.13. Under LEKKLFVKVYRHSICIGVAE stands 1.9 ± 0.43; under LHQRLV, 0.195 ± 0.27. Under YLIISMRFISSTQYRFFSVH stands 0.498 ± 0.19; under STPDVVEAWFL, 0.039 ± 0.46; under QVKLFYRLRPSFLCVFPFNL, “inactive”. On to CFWWNPGSILIRWCLKVLPG, for which the amyloid nucleation score is -1.59 ± 0.54.

NLGHTCVCFKRIRSYFFSYR displayed an amyloid nucleation score of -0.94 ± 0.49. Under FPFFLHLFNYLLVRCLTVGF stands “inactive”. Under NREIGISWEGWMMLKILQYK stands “inactive”. Substance GCSWEITDVHGGRLKLAMDP displayed an amyloid nucleation score of 1.12 ± 0.32. Consider MTGSTSKMGRCFWQFICSGL, for which the amyloid nucleation score entry was “inactive”. For DNTELFKNDFKFKLYLSNKI, the amyloid nucleation score turned out to be 1.72 ± 0.24.

In turn, LFSHELADSSTVMKYTWWAV gave an amyloid nucleation score of 4.23 ± 0.045. Under HVILM stands 1.65 ± 0.33; under VRGLFVLTVLEVS, -0.161 ± 1.1; under FWRAFMLHWGNFLLMRALHE, “inactive”. Under YTYSHAYPRWTMFIWWHDLE stands -0.378 ± 0.31; under VACVAHNTHYELTQQSYIYY, 5.609 ± 0.046; under SLNFFIMSKSSTGVSSFLYV, 6.483 ± 0.038.

Consider TQFFFDFFE, for which the amyloid nucleation score was determined as 0.432 ± 0.4.

The substance RLMFLVFSESSKYSALHMWG yielded an amyloid nucleation score of 0.939 ± 0.19. The substance WRELKSQVDWRLDILSGSYR returned an amyloid nucleation score of 0.971 ± 0.26. In the case of LCYMFIFRTWMLLWVQTMKN, the amyloid nucleation score result was “inactive”. YRNCLPMGGNALS had an amyloid nucleation score of -0.964 ± 1.1. VARFILHCY registered an amyloid nucleation score of -0.492 ± 0.28. As for FVLHIMRLSCYCE, the amyloid nucleation score is -0.29 ± 0.45. On to YHRSCFWDYLISDGLKQACH, for which the amyloid nucleation score was -1.51 ± 0.78. The substance ARCDCGFVRGGNCVVQYCLS registered an amyloid nucleation score of 7.529 ± 0.04.

Substance ISLISHVLANLSVIRDHANE had an amyloid nucleation score of -0.68 ± 0.4.

For LMFARTMRSVRRFFYVGFHH, the amyloid nucleation score entry is “inactive”. As for TDLIAVGCPLMYSMRE, the amyloid nucleation score worked out at 2.04 ± 0.35.

Regarding TFINAGFRLHFRFYRFVFSK, the amyloid nucleation score was -0.717 ± 1.

In turn, CDFLWWPTQFANRRTKVGVW gave an amyloid nucleation score of 0.083 ± 0.76. Under NFTSGGRRHNVERVGHLGLV stands -0.168 ± 0.76; under SSGGGYWLLWVE, -0.559 ± 0.76. Under VGGVIYAYGFVFF stands 7.381 ± 0.029; under WKSLTGYIRLIFRNFWTSHD, “inactive”; under HEAYLPRLNDVTTSPSPCPY, 0.487 ± 0.62.

On to IKSVRTWGSLESA, for which the amyloid nucleation score was -0.073 ± 0.34. On to VESLRLRRSMVRNLILSSSC, for which the amyloid nucleation score is -0.125 ± 0.63. Under NESSTSQNKGTRTDKGAESL stands 0.376 ± 0.33; under FDQVWRCVASLRPIVLSCSS, 0.322 ± 0.54.

The substance NTSIQQIPLMSRLGVAFVIW displayed an amyloid nucleation score of -0.781 ± 0.54. TLKEGRWEVPCLIWIWRVWS had an amyloid nucleation score of 1.6 ± 0.36. Under RSHPKMMSDICSV stands 0.178 ± 0.65. Substance CMISTDLKVTRALSTHKNCI registered an amyloid nucleation score of 0.02 ± 0.56. Substance CSTLVRIR had an amyloid nucleation score of 0.723 ± 0.46. Under YSEWSSTRPQFRTLNHEWLL stands 0.498 ± 0.74; under LFTGRNRTSTHSSDISSRN, 0.531 ± 0.66. Substance DMRLKGLTRVFTGDNRFSLL showed an amyloid nucleation score of -0.064 ± 0.54. In turn, SISAKFSSTSWGGG gave an amyloid nucleation score of 6.444 ± 0.046. As to YFIAASYCDLTYLKTIDWTG, the amyloid nucleation score came to 2.76 ± 0.067. VSPNPIWIVEKWPI gave an amyloid nucleation score of -1.63 ± 0.62.

As for LNNHTPDLVWRSSVIGRCQK, the amyloid nucleation score amounted to 0.47 ± 0.48. Under FGADNGSPRSE stands -0.354 ± 0.76. For the substance GFSLVW, the amyloid nucleation score was -0.413 ± 0.41. Under QDFCSEGCLEDVSSLY stands -1.37 ± 0.49. Under VLWCDKWVGNNMKDGELTLW stands 0.446 ± 0.43; under EDFYAYFLIRRCVACAIIFL, 3.02 ± 0.15; under NKWSPEGNSACRDSVCTHIY, -0.807 ± 0.76. Under SDLSKKSLLKVLMAS stands -0.375 ± 1.1; under NCPCGHVVRVNNNWRCFSVT, 6.933 ± 0.052. The substance VGLNYNAMAHTSRGSF returned an amyloid nucleation score of 0.236 ± 0.38. Turning to HEVLTVHNKAFRKYLSCIFR, the amyloid nucleation score result was “inactive”. As to LSVCGSWDRRRFGGYDLWCT, the amyloid nucleation score came out at 0.903 ± 0.48. Under CVAVNLCVAALV stands -0.049 ± 0.76; under LTVLFVLTVCFNVAMGCCLS, -0.223 ± 0.76; under NDAYITSVVGFTRYMYNFMV, “inactive”.

Regarding LVRPILLYYSMLV, the amyloid nucleation score entry was “inactive”. Under GRCILGCHPATRTGMLRYFE stands -0.087 ± 1; under IYTSSGL, -0.902 ± 0.54; under ECTYNKSWHQTWVTTRHGSS, 0.613 ± 0.23. Under NLIKNSAMLSSTRPIYHHSI stands -1.27 ± 0.3; under PMRKADRYSSSSET, -0.479 ± 1; under TICSHKRKYNWMIGWRMSTF, 0.142 ± 0.45. Under CVGSLQLHGVSRRCIRCWGR stands 1.15 ± 0.4; under DVCYCRKPTINALRWLMMYA, -0.27 ± 1.1. CAPDVQWFSKIAFE displayed an amyloid nucleation score of 1.1 ± 0.53. Under GLHLHSVAEYVCWGTPLSRL stands 0.119 ± 0.76; under LNSQSVFKC, -0.967 ± 0.55. FNLADSTSSVTP gave an amyloid nucleation score of 0.048 ± 0.65. Under LTKVWLPCAFVVSSFDQYQH stands 0.764 ± 0.41; under ERDSSALRMAYSICHGNSVV, 0.232 ± 0.56. Under YNGPLHYDRNDSSVKQSVFI stands “inactive”; under MAYWESTVIYYIDWEWDSLV, -1.16 ± 0.39; under RAVTRVKHICLSATRSCDVE, 0.523 ± 0.21. NVAHGW gave an amyloid nucleation score of -0.322 ± 0.44. Turning to GGNIGVSYLRWCARINCWWK, the amyloid nucleation score worked out at 5.49 ± 0.062.

As for IVDGVYEFKC, the amyloid nucleation score was -0.779 ± 0.32. Under YRVSIMYDAWDGLARWFYRR stands 0.507 ± 0.46; under IVCDVLNWPYFVAMAF, 0.25 ± 0.8; under IRFQCRSLRFTAIGGQVSWI, 3.48 ± 0.095. Under GNIDGLLQFEYRW stands 0.552 ± 0.66; under CLGKSRYCISDWKFLSLWPN, -0.932 ± 0.55. Under TSGVTWQLACSVK stands 4.2 ± 0.095. In turn, KIEVRLRVTYGYSSLVQAVG yielded an amyloid nucleation score of -0.326 ± 1. Under MRMYLGVDSENRASDMGRTR stands 1.03 ± 0.36.

Substance IEIHALRPEQMFSVLGYGVQ showed an amyloid nucleation score of 0.146 ± 0.27. Regarding TLFSVCSIHEQWPGEVMVSY, the amyloid nucleation score came to 0.918 ± 0.47.

Substance DGYIVFSRNAVNIFSVYFTG registered an amyloid nucleation score of 6.212 ± 0.04. Regarding PPNRVNGNW, the amyloid nucleation score stood at 0.853 ± 0.57. Under PRSYWRSYWAKVLDYQLIPR stands 3.55 ± 0.07; under LRVRGRFLNSWSASPRSSDY, 3.58 ± 0.053; under SFWLTMMCNVGTMALVLSNL, -0.065 ± 0.31.

For LSCSILRPVWLYISLIVIID, the amyloid nucleation score is -1.28 ± 0.48. The substance FKVTTFYHGLSSMKDVASSY registered an amyloid nucleation score of -0.95 ± 0.45. Under MSRPSSYS stands “inactive”. Under MNIFKYFQSSSETMLTLKCT stands -0.724 ± 1; under IRNDKYW, -0.101 ± 0.31. Under CFLVDFHVARSVDSYVELGS stands -0.436 ± 1.1.

Substance SWHFKSKHSCVFFRCEYVVS returned an amyloid nucleation score of -0.373 ± 1. Consider GRRVPGWNQSYL, for which the amyloid nucleation score is -0.274 ± 0.76.
